The record followed here is publication PMC9018702.

Data set [1] deals with T1, MBP-TDR (Oryza sativa (ORF cloned from ZH11), UniProt Q6YUS3 1-552). Nature of the data set: EMSA; EMSA: 10 mM Tris-HCl pH 7.5, 50 mM KCl, 5 mM MgCl2, 1 mM DTT, 2.5% glycerol, 0.05% NP-40, 50 ng/uL poly(dI-dC), 10 fmol probe, 1 ug protein in 20 uL, room tempe.
The target of data set [2] is T1, MBP-TDR. Nature of the data set: competition; 10-, 20-, 100-fold excess unlabeled probe eliminates shift; EMSA: 10 mM Tris-HCl pH 7.5, 50 mM KCl, 5 mM MgCl2, 1 mM DTT, 2.5% glycerol, 0.05% NP-40, 50 ng/uL poly(dI-dC), 10 fmol probe, 1 ug protein in 20 uL, room tempe.

B1: EAT1 promoter P1 probe (dsDNA)
DNA 1: GCGTATCGTGGTCATCTGTCTATTTTACATGCACTTGTAGCTGGATAAA
DNA 2: TTTATCCAGCTACAAGTGCATGTAAAATAGACAGATGACCACGATACGC
For the molecule B1, the binding result with MBP-TDR [1] is recorded as “binds”.

B2: EAT1 promoter P1 unlabeled competitor (dsDNA)
DNA 1: B1 DNA 1
DNA 2: B1 DNA 2
Regarding B2, in the data set with MBP-TDR [2], the binding result is recorded as “binds”.
